From the domain aggregation screens of Martell et al. (2025)

Assay: soluble fraction after stress (log2 fold change); higher = more stays soluble; pooled small domains, quantitative proteomics
Details: stress: pH 4
Method in brief: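 Pooled custom libraries of small protein domains were subjected to pH 4 and measured by high-throughput quantitative proteomics. The log2 fold change in soluble amount per domain is reported, higher values meaning more remained soluble. This is used as a measure of aggregation propensity.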

| Sequence | soluble fraction (log2) |
| --- | --- |
| HMDLKTNSQLINELEKKIKRPFDREIKNYLNKNLSTDRMISNNEIDKIILFYSGNNEIPNIEKISLILNDN | 0.0193 |
| HMFYWTDLIGLDVINTADERLGKVVGLIETGANAVLRVMGDDQVERLLPFGSAVVLTVEKEAGQIRVEW | -2.05 |
| HMRKTLASTAYDSIKAGIVSGEINNNLLLSENTLAKILNMSRTPIREAIKRLEAESYLKSVDGVGLIVQE | -0.314 |
| HMYTDGVPALTDLKKESKPGRRQYVGVEDIPKVLGGLGITILSTSKGLMSGHQAKKKNIGGELIASV | -0.0153 |
| HMAAVAPPVLERIASDLATRFAGTLSPETVDRYVRESYHLLAERAGITRYLPSLTARFAGDRLDA | -0.208 |
| HMGQELRFVIQDHEAGIRLDHYLTQQVEGYSRSHLRKLMDQGLITVDGSYRKAGYRLNVGDVIHVVIPPTR | -0.0619 |
| HMVPLTPGELVGTEVRVLWWKEGRGEVIASSRGHQLTLEAHSEDPLRAGSTAVVLEAADDVLVVTS | -1.18 |
| HMGIAEAKRVIVRTLHDVLGPEADFLTEKIDVAQTAAELRVHAEKYRDMLVDMGKPKKSAAFWEAFEAALP | -0.65 |
| HMQDYYTQSDFARYLEDKGIHFPQNKIAVYRKRGKFPKEDLVVAGTPYWSKYTVESFAKHLLEQQN | 0.302 |
| HMEEIDLTPAEEILNKLPDNSRGYLIPTLNKIQNAYRFLPDPAMELLMEFFNVSRAEIFGVISFYPQLMI | -0.533 |
| HMGVDKLTPREREVLALMAQGASNREIEGKLVLTAGAVSKHVANVFMKLGFSPEDENRRVKAVLAWLRTK | 0.225 |
| HMRLPNGYGSITKLSGKRRKPFMVRITTGYDNEGKQLMSVLGYYATRTEALAVLAEYNKNPYNPI | 0.109 |
| HMYVQDPVDRLVLESALRLLREQEREIIFLHLVAGLKHREIAGLLHLPLSTVLSGYRRALTKMKSYLEE | 0.0239 |
| HMKELASKYEISEYMKFLIENLDKSNFFYPIEKRESMINNIFSIYSKADLSKKELNMLWGMLKKLR | -1.06 |
| HMIEEIAVPEILGMQEEEAKAKIEGLGLVFNVTDRVKSNEYEKGEVMYQSVGPDDTTVKSGYPINVTISEG | -0.162 |
| HMATYETEVISGVNLRSAPNTSASVYRLLSKGEDIHVIQKVNDYWLKVQTKDGKIGYISASSKYTNYIA | -0.132 |
| HMEYSKSIKRLREDKNLTVEELAKRLSLDVEEIQKAEDGEDVDQKTLEAIARYFGVQYDSLVEGTAKSK | -0.258 |
| HMSDRLRPGDMVVVVGKKKRYPVFSAFDIDFVEAGDVGKVLTVKREEVVVGFPKKGEGTFTPSELNIAH | 0.00331 |
| HMSVFMIIVLKQHAPQEFVDMLMSSIKAKGVQIDVSKGARKTILGLVGNTSVIDREQIAGYEYVDKVIRV | -0.289 |
| HMLKRLTVEFSAEMPKKMTSEQKEELASVLSEDPRPAYQNDENREYGLDYGEFSVKFKVKDGVLTVTSVTE | 0.226 |
| HMAHLSPNDAARLVGVSRPLLNQILDEGRITFFETAGGHRKIKLAAVLAYIKERDEVAAQLAAART | -0.514 |
| HMREGRERRLSQLLSYLRTHHILTRSEYVKLTGLSPTAASSELKTFVTAGHIVRKGIASHSTYRLPH | 0.00826 |
| HMSSQVFLGQKNSIAKYDLNENKPIWTKEIKGTPLILSTWKDMLLIQIQTWVSYTHMLVKQENGQTVWE | 0.282 |
| HMNRTKYYDFEGHPAKVVRLTLPVYLNKIGDEVVVYDSQKFAREASPISESQYNRMVAEIFQP | -0.0162 |
| HMFSIDRNIRRLRKEAGLTQEELAQKLFVTRQTISLWELGKVHPDLETLQKLAEQFQVDLLQVLYGPE | -2.41 |
| HMEYDYKVIDFFKDYYSYLNYQEIEPNILDKQLTTLTEEESAKIAGIMKLDYEDFTRGIEIVTGS | -1.41 |
| HMQYTTDEVRERVLSVLNQLLLRWIVREGKDMFNIQANAVEISEGIKGELNTELEKIGLAATGFQIDSV | -0.678 |
| HMQKVPDAFKAEQVQTLITRLGVSRAELARTLDVSLSTVNKWASGAVEPKGSALVLLKVLWMHGFKAL | 0.03 |
| HMIFSIIPGQIRLTKMEIADGYLVLYGFTPSKEIYNLHLNPALKSIFTSSETSFIPVSGGLKFMSTNKL | -0.442 |
| HMLNENNHGEWSIRMSNGLVVRLGRDELNRSLRRSIMAYAGLAPNYRSSIEYIDARYLGGVALKTF | -0.159 |
